Laboratory results as given in IntAct's records for PubMed 16061658.

B1: Receptor tyrosine-protein kinase erbB-4 (Mus musculus), Q61527 (parent)
chain: MKLATGLWVWGSLLMAAGTVQPSASQSVCAGTENKLSSLSDLEQQYRALRKYYENCEVVMGNLEITSIEHNRDLSFLRSIREVTGYVLVALNQFRYLPLENLRIIRGTKLYEDRYALAIFLNYRKDGNFGLQELGLKNLTEILNGGVYVDQNKFLCYADTIHWQDIVRNPWPSNMTLVSTNGSSGCGRCHKSCTGRCWGPTENHCQTLTRTVCAEQCDGRCYGPYVSDCCHRECAGGCSGPKDTDCFACMNFNDSGACVTQCPQTFVYNPTTFQLEHNFNAKYTYGAFCVKKCPHNFVVDSSSCVRACPSSKMEVEENGIKMCKPCTDICPKACDGIGTGSLMSAQTVDSSNIDKFINCTKINGNLIFLVTGIHGDPYNAIDAIDPEKLNVFRTVREITGFLNIQSWPPNMTDFSVFSNLVTIGGRVLYSGLSLLILKQQGITSLQFQSLKEISAGNIYITDNSNLCYYHTINWTTLFSTINQRIVIRDNRRAENCTAEGMVCNHLCSNDGCWGPGPDQCLSCRRFSRGKICIESCNLYDGEFREFENGSICVECDSQCEKMEDGLLTCHGPGPDNCTKCSHFKDGPNCVEKCPDGLQGANSFIFKYADQDRECHPCHPNCTQGCNGPTSHDCIYYPWTGHSTLPQHARTPLIAAGVIGGLFILVIMALTFAVYVRRKSIKKKRALRRFLETELVEPLTPSGTAPNQAQLRILKETELKRVKVLGSGAFGTVYKGIWVPEGETVKIPVAIKILNETTGPKANVEFMDEALIMASMDHPHLVRLLGVCLSPTIQLVTQLMPHGCLLDYVHEHKDNIGSQLLLNWCVQIAKGMMYLEERRLVHRDLAARNVLVKSPNHVKITDFGLARLLEGDEKEYNADGGKMPIKWMALECIHYRKFTHQSDVWSYGVTIWELMTFGGKPYDGIPTREIPDLLEKGERLPQPPICTIDVYMVMVKCWMIDADSRPKFKELAAEFSRMARDPQRYLVIQGDDRMKLPSPNDSKFFQNLLDEEDLEDMMDAEEYLVPQAFNIPPPIYTSRTRIDSNRSEIGHSPPPAYTPMSGNQFVYQDGGFATQQGMPMPYRATTSTIPEAPVAQGATAEMFDDSCCNGTLRKPVAPHVQEDSSTQRYSADPTVFAPERNPRGELDEEGYMTPMHDKPKQEYLNPVEENPFVSRRKNGDLQALDNPEYHSASSGPPKAEDEYVNEPLYLNTFANALGSAEYMKNSVLSVPEKAKKAFDNPDYWNHSLPPRSTLQHPDYLQEYSTKYFYKQNGRIRPIVAENPEYLSEFSLKPGTMLPPPPYRHRNTVV
partner: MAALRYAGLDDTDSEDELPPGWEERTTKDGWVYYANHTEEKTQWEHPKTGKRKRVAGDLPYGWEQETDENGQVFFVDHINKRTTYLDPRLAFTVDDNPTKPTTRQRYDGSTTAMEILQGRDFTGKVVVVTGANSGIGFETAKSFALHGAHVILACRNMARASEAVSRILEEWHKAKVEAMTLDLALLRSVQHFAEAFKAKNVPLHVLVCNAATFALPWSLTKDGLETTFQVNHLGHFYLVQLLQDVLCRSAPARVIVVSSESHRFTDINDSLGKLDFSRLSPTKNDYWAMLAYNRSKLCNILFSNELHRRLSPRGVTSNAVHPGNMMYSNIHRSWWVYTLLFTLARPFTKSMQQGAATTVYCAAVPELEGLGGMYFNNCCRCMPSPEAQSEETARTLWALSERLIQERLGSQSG
B2: WW domain-containing oxidoreductase (Homo sapiens), Q9NZC7 (parent)
chain: B1 partner

Variants of: B1
Conditions: with wwox_human WWOX, Q9NZC7

effect of a mutation on the interaction	Variant
disrupting interaction	Y1035A;Y1301A

Variants of: B2
Conditions: with erbb4_mouse Erbb4, Q61527

effect of a mutation on the interaction	Variant
disrupting interaction	MAALRYAGLDDTDSEDELPPGWEERTTKDGWVRYANHTEEKTQWEHPKTGKRKRVAGDLPYGWEQETDENGQVFFVDHINKRTTYLDPRLAFTVDDNPTKPTTRQRYDGSTTAMEILQGRDFTGKVVVVTGANSGIGFETAKSFALHGAHVILACRNMARASEAVSRILEEWHKAKVEAMTLDLALLRSVQHFAEAFKAKNVPLHVLVCNAATFALPWSLTKDGLETTFQVNHLGHFYLVQLLQDVLCRSAPARVIVVSSESHRFTDINDSLGKLDFSRLSPTKNDYWAMLAYNRSKLCNILFSNELHRRLSPRGVTSNAVHPGNMMYSNIHRSWWVYTLLFTLARPFTKSMQQGAATTVYCAAVPELEGLGGMYFNNCCRCMPSPEAQSEETARTLWALSERLIQERLGSQSG [Y33R]
